Results on five molecules are retold here after patent publication US20210179727A1 (LYVGEN BIOPHARMA, published 2021).

The labels stand for the following.
B1: LYV379 (chimeric antibody, 17C5C2 in human IgG4SP / human kappa) (antibody, V domains shown)
VH: EVHILETGGGLVKPGGSLGLSCTTSGFNFNDYFMNWVRQAPGKGLEWVAQIRNGNYDYAAYYAESLEGRVTISRDDSKSSVNLQVSSLRAEDTAIYYCTSYYYDGHFDYFDNWGHGVMVTVSS
VL: DIKVTQSPSFLSASVGDRATINCKASQNLNKYLNWYQQKPGEPPKLLIYNTDNLYTGIPSRFSGSGSVADFTLTISGLQPEDVATYFCMQHNVRRTFGGGTKLELKR
notes: Human IgG4 S228P and human kappa; also called 17C5C2 chimeric
B2: LYV376 (chimeric antibody, 19G6D6 in human IgG4SP / human kappa) (antibody, V domains shown)
VH: EVQLQQSGPELVKPGASVKIPCKASGYTFTDYNMDWVKQSHGKSLEWIGDINPNNDISIYNQKFRGKATLTVDKSSSTAYMELRSLTSEDTAVYYCARRFAYWGQGTLVTVSA
VL: EIVLTQSPTTMAASPGEKITITCSASSSISSNYLHWYQQKPGSSPKVLIYRTSNLASGVPVRFSGSGSGTSYSLTIGTMEAEDVATYYCQQGSSIPYTFGGGTKLEIKR
notes: also called 19G6D6 chimeric; 1966D6 (LYV376)
B3: LYV377 (chimeric antibody, 13F1A7 in human IgG4SP / human kappa) (antibody, V domains shown)
VH: EVQILETGGGLVKPGGSLRLSCATSGFNFNDSFMNWVRQAPGKGLEWVAQIRNKNYNYATYYTESLEGRVTISRDDSKSRVYLQVSSLRAEDSAVYYCTSYYYDGFADYFDYWGQGVMVTVSS
VL: DIKMTQSPSFLSASVGDSVTFTCKASQNIYIYLNWYQQKFGEAPKLLIYNTNNLQTGIPSRFSGSESGTVFTLTISSLQPEDVATYFCLQHSSRRTFGGGTKLELKR
notes: Human IgG4 S228P and human kappa; also called 13F1A7 chimeric; LTV377
B4: LYV391 (chimeric antibody, 36G7B8 in hG4SP / human kappa) (antibody, human IgG4 S228P, kappa, V domains shown)
VH: QVQLQQPGAELVRPGASVKLSCKASGYIFISYWIHWLKQRPGRGLEWIGRIDPNNGGTKYNEKFRYKASLTVDKSSSTAYMQLSSLTSEDSAVYYCTKGVITTLVAGDYWGQGTTLTVSS
VL: DVVMTQIPLSLPVSIGDQASISCRSSQSLVYSYGNTYLHWFLQKPGQSPKLLIYNVSNRFSGVPDRFSGSGSGTDFTLRISRVEAEDLGVYFCSQGTHVPWTFGGGTKLEIKR
notes: Human IgG4 S228P and human kappa; also called 36G7B8 chimeric; 366788 (LYV391)
B5: LYV378 (chimeric antibody, 9F12D9 in human IgG4SP / human kappa) (antibody, V domains shown)
VH: EVHLVESGGGLVQPGRSLKLSCAASGFTFTNYGLHWIRQAPTKGLEWVASISPSGGVTYYRDSVKGRFTISRDNGKTTLHLQMDSLRSEDTATYYCALPFLGWGGANWIAHWGQGTLVTVSS
VL: DIQMTQSPASLSASLGETVSIECLASEDISNDLAWYQQKSGKSPQLLIYFVDRLLDGVPSRFSGSGSGTRHSLKISGMQPEDEADYFCQQSYKYPPTFGGGTKLELKR
notes: Human IgG4 S228P and human kappa; elsewhere it is 9F12D9; also called 9F12D9 chimeric; 9F12D8

What is called EC50 (read off the curve) is the midpoint of the concentration-response curve.

The target of one assay is monkey CD40 protein (plate coat of the ELISA of Fig. 5) (cynomolgus monkey per paragraph 23; rhesus …). In words: ELISA on monkey CD40 protein coated on the plate, anti-human IgG-HRP, A450. Background: In an ELISA, binding on a coated surface is turned into a signal by an enzyme label.
With B1, the “EC50 (read off the curve)” value was about 5 ng/mL.

Another assay deals with T1, human CD40-His tag protein (Sino Biological Inc. Cat #10239-H08E) (human, UniProt P25942 21-193).
T1 construct: also called human CD40 protein; CD40 protein; not shown: His tag
T1 sequence (P25942 21-193 limits assumed, stated change not applied): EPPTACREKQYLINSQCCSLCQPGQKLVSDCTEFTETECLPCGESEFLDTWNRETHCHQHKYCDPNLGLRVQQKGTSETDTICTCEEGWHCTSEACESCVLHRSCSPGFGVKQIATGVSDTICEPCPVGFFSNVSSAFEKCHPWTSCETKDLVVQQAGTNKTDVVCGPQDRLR
In words: ELISA, plate coated with human CD40-His at 1 ug/ml, anti-human IgG-HRP, A450. The method, then: CD40 protein (human CD40-His tag protein (Sino Biological Inc. Cat #10239-H08E) or rhesus monkey CD40-His (Sino Biological Inc. Cat #90097-C02H) was diluted in PBS to 1 ug/ml and used to coat an ELISA plate (Corning, Cat #9018, high binding) at a concentration of 50 ul/well. The plate was incubated overnight at 4° C. The plate was then decanted and washed with PBS-T, and 200 μl/well assay diluent (1×PBS/1% BSA/0.05% Tween-20/0.05% proclin 300) was added. After a 3 hour incubation at room temperature, the plate was washed with PBS-T three times. The testing antibodies were diluted in assay diluent to 0, 0.000003, 0.00003, 0.0003, 0.003, 0.03, and 0.3 ug/ml or approximately 0, 0.00002, 0.0002, 0.002, 0.02, 0.2 and 2 nM and then added to the plate (50 ul/well). The plate was incubated for one hour at 37° C. and then washed three times with PBS-T. Anti-human IgG-HRP conjugate (Bethyl Cat #A80-319P) at a 1:10,000 dilution was added to the plate (100 ul/well). The plate was incubated for 0.5 hour at 37° C., followed by washing with PBS-T three times. The TMB substrate solution was added (100 ul/well). The color was allowed to develop for 8 minutes before it was stopped with 100 ul/well 2N H₂SO₄. Absorbance at 450 nm was determined with an ELISA reader.
For B2, the “EC50 (read off the curve)” value is about 3 ng/mL.

Regarding B1, the “EC50 (read off the curve)” value is about 20 ng/mL.

Regarding B3, the “EC50 (read off the curve)” value was about 4 ng/mL.

On to B4, for which the “EC50 (read off the curve)” value is about 20 ng/mL.

As to B5, the “EC50 (read off the curve)” value is about 4 ng/mL.
